For 1 molecule, fold increase in Km in Sic1 ubiquitylation reactions, against Cdc34-Δ230 results are on record in paper PMC2794717.

This assay concerns the target yeast SCF^Cdc4 ubiquitin ligase (yeast) (UniProt P52286).
Sequence of UniProt P52286 (P52286 whole entry, chain 1 of 4): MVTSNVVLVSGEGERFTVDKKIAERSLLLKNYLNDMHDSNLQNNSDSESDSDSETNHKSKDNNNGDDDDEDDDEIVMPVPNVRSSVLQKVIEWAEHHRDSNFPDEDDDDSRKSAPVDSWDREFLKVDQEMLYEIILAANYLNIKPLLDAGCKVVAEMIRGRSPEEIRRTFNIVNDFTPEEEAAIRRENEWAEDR
Sequence of UniProt P52286 (Q12018 whole entry, chain 2 of 4, further chain): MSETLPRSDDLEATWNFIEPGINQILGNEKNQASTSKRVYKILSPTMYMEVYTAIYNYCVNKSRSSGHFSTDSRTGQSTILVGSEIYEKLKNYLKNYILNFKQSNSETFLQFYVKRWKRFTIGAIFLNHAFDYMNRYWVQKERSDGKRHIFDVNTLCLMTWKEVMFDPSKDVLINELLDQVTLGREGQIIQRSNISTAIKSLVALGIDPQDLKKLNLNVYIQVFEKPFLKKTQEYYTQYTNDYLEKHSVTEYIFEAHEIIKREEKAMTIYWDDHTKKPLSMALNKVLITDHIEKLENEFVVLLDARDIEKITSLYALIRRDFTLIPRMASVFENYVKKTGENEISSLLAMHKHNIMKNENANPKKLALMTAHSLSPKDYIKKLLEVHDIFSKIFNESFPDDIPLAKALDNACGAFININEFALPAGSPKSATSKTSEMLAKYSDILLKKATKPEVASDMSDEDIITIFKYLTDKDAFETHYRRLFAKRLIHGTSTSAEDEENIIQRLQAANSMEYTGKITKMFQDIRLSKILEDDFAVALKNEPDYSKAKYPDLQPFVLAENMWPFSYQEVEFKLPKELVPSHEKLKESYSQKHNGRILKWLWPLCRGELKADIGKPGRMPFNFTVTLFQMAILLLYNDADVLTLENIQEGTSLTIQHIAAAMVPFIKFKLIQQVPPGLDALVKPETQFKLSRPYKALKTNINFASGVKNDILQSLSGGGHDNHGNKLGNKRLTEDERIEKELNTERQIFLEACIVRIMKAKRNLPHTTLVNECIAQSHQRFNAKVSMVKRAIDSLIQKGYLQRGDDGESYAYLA
Sequence of UniProt P52286 (P07834 whole entry, chain 3 of 4, further chain): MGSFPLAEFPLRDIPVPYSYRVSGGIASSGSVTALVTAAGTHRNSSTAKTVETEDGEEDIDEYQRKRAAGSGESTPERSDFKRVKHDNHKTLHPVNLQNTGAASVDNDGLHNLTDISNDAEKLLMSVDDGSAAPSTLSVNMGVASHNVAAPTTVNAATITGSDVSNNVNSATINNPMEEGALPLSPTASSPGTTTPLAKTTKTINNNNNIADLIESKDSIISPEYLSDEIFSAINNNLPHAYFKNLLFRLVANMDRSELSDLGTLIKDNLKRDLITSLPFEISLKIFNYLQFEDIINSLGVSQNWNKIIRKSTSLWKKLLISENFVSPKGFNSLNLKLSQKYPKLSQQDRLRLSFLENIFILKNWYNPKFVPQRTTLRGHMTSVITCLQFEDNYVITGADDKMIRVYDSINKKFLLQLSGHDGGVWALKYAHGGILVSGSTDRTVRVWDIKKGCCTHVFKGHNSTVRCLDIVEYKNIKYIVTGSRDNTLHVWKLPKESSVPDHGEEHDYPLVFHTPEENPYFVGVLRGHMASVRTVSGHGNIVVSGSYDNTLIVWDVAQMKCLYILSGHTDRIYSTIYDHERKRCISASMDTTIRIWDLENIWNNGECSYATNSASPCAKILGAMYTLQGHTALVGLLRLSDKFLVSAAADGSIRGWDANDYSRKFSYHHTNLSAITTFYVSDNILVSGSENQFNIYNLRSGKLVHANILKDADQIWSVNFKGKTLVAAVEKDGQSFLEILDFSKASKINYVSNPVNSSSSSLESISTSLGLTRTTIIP
Sequence of UniProt P52286 (Q08273 whole entry, chain 4 of 4, further chain): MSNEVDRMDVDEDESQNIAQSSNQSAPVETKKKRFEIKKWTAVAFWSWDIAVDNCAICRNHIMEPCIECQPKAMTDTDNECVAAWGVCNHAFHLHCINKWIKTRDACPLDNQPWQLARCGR

B1: yeast Cdc34-Δ220 (domain or fragment)
chain: MSSRKSTASSLLLRQYRELTDPKKAIPSFHIELEDDSNIFTWNIGVMVLNEDSIYHGGFFKAQMRFPEDFPFSPPQFRFTPAIYHPNVYRDGRLCISILHQSGDPMTDEPDAETWSPVQTVESVLISIVSLLEDPNINSPANVDAAVDYRKNPEQYKQRVKMEVERSKQDIPKGFIMPTSESAYISQSKLDEPESNKDMADNFWYDSDLDDDENGSVILQ
The molecule B1 had a fold increase in Km in Sic1 ubiquitylation reactions, against Cdc34-Δ230 of 3 fold.
